Experimental data: the supplement of paper PMC10065799, “High-throughput profiling of sequence recognition by tyrosine kinases and SH2 domains using bacterial peptide display” (eLife, 2023)

Key:
Fyn = Fyn (UniProt P06241); assay: phosphorylation enrichment, bacterial display (enrichment ratio); higher = better substrate or ligand; peptides without Tyr show the background
FGFR3 = FGFR3 (UniProt P22607); assay: as above
EPHB1 = EPHB1 (UniProt P54762); assay: as above
Fer (mouse) = assay: as above
FGFR1 = FGFR1 (UniProt P11362); assay: as above
EPHB2 = EPHB2 (UniProt P29323); assay: as above
Jak2 = Jak2 (UniProt O60674); assay: as above
Fes = Fes (UniProt P07332); assay: as above
AncSZ = assay: as above
c-Src = assay: as above
MERTK = MERTK (UniProt Q12866); assay: as above
c-Abl (mouse) = assay: as above
Hck = Hck (UniProt P08631); assay: as above
c-Src SH2 = assay: SH2 binding enrichment of the phosphorylated peptide, bacterial display (enrichment ratio); higher = better substrate or ligand; peptides without Tyr show the background
SHP2-C SH2 = assay: as above
Grb2 SH2 = Grb2 SH2 (UniProt P62993); assay: as above
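Throughout, for SH2 binding enrichment of the phosphorylated peptide, bacterial display: peptide library displayed on the E. coli surface as eCPX fusions, selected cells deep-sequenced, score is each peptide's frequency after selection divided by its frequency in the input.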
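Throughout, for phosphorylation enrichment, bacterial display: 11-residue human phosphosite peptides and single-mutation variants displayed on the E. coli surface, counted by deep sequencing, each peptide's frequency after selection divided by its frequency in the unselected input library; frequency after pTyr selection over input frequency; kinase dosed for 20-30% of maximal phosphorylation in three min.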

Chain of FGFR1 (P11362 whole entry, looked up): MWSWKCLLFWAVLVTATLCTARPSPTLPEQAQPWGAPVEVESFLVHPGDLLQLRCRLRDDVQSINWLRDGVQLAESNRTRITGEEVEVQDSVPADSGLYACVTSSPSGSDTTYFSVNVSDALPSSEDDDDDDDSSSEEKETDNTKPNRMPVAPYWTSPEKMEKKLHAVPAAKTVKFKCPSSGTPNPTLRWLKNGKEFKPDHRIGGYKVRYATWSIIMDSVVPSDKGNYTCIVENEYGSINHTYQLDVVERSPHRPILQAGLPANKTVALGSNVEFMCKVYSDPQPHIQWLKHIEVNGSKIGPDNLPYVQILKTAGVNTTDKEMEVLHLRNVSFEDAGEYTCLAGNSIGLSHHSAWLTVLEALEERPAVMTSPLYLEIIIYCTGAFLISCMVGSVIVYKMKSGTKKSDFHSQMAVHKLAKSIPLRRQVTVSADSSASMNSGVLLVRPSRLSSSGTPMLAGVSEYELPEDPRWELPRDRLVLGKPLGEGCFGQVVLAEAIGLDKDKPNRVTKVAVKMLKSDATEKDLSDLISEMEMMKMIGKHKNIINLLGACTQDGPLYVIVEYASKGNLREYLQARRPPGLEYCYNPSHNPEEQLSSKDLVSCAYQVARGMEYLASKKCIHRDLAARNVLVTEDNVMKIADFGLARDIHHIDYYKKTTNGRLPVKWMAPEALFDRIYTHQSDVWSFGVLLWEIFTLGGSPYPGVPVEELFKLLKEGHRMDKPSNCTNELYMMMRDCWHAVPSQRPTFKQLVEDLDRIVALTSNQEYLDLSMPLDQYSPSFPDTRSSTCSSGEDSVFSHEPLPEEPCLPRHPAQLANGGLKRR
Chain of Jak2 (O60674 whole entry, looked up): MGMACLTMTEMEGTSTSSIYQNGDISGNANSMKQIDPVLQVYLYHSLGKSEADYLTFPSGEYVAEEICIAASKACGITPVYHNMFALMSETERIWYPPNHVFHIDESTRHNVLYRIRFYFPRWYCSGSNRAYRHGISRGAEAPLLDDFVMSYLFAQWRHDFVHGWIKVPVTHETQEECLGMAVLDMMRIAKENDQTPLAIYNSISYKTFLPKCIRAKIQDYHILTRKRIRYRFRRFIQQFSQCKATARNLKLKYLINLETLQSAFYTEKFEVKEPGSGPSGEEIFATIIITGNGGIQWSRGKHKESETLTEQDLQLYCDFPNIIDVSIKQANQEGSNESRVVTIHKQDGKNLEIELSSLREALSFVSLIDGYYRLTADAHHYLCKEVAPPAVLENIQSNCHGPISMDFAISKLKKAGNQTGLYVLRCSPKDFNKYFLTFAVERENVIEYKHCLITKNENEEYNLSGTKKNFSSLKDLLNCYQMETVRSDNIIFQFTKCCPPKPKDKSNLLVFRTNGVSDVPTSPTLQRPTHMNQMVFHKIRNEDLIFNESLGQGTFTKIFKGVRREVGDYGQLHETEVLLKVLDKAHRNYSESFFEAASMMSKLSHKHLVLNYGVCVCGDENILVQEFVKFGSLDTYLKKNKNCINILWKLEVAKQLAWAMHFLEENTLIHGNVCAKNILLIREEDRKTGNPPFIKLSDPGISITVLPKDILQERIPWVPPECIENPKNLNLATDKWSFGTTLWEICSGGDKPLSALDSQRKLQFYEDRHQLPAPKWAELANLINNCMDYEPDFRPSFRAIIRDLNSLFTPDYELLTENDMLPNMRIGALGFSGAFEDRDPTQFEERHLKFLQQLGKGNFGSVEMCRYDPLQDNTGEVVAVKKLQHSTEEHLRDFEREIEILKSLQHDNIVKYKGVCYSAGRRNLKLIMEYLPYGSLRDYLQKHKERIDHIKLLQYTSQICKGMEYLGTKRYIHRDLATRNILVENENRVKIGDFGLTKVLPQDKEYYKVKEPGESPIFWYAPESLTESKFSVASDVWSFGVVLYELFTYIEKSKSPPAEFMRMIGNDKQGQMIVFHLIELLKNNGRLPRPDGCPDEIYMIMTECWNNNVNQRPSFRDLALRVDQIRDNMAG
Chain of Fyn (P06241 whole entry, looked up): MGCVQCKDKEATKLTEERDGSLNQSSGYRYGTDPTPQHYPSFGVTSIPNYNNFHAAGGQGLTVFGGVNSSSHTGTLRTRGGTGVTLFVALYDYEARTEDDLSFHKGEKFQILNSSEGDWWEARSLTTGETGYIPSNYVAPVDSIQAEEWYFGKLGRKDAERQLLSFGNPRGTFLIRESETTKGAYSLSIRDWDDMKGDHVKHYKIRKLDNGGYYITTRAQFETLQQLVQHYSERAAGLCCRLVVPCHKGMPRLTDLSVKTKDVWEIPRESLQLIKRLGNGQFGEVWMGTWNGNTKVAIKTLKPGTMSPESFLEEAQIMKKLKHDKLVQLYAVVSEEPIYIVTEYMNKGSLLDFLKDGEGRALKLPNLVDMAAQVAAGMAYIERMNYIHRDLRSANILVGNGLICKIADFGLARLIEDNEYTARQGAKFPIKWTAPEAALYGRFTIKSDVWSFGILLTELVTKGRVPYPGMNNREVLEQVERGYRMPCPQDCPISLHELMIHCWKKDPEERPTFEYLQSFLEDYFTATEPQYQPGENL
Chain of Fes (P07332 whole entry, looked up): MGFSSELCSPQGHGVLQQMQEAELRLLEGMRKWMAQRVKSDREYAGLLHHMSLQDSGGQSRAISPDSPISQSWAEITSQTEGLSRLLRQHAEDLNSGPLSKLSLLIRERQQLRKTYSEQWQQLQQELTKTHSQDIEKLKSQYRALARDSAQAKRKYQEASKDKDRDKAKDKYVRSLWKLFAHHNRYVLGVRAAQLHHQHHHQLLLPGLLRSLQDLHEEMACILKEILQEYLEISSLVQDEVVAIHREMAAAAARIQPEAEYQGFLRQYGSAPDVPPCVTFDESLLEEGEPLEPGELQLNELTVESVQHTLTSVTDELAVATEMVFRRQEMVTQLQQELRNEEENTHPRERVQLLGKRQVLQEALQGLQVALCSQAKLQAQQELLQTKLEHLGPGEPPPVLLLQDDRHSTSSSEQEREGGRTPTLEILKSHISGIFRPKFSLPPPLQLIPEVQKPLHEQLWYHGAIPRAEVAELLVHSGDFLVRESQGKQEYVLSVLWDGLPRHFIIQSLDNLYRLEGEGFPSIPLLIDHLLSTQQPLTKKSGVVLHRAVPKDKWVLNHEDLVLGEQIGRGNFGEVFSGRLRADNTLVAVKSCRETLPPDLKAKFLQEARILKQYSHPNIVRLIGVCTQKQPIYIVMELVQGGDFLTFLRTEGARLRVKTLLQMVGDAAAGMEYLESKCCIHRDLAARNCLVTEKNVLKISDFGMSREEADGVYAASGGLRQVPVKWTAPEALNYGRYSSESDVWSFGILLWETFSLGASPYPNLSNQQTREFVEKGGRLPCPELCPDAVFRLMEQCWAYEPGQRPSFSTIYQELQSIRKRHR
Chain of FGFR3 (P22607 whole entry, looked up): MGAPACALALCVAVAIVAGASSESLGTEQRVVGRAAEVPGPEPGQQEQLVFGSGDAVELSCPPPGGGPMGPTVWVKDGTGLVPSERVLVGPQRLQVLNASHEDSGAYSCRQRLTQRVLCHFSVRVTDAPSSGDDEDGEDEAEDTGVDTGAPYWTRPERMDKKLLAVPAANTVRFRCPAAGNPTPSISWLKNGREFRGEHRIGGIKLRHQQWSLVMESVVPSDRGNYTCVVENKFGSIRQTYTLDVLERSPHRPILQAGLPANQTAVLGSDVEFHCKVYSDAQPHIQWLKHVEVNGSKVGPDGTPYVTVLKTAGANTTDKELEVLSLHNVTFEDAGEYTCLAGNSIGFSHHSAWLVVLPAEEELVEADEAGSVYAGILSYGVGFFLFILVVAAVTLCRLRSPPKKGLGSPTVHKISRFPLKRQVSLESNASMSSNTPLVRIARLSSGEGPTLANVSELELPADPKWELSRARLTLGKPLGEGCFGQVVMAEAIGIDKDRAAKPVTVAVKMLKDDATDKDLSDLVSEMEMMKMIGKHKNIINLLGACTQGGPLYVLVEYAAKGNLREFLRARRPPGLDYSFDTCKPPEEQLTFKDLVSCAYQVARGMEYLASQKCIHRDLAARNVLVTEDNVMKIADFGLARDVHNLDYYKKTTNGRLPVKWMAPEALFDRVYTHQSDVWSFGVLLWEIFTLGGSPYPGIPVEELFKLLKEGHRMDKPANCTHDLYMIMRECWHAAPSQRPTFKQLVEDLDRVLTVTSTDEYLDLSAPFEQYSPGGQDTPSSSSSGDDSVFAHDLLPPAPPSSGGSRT
Chain of EPHB1 (P54762 whole entry, looked up): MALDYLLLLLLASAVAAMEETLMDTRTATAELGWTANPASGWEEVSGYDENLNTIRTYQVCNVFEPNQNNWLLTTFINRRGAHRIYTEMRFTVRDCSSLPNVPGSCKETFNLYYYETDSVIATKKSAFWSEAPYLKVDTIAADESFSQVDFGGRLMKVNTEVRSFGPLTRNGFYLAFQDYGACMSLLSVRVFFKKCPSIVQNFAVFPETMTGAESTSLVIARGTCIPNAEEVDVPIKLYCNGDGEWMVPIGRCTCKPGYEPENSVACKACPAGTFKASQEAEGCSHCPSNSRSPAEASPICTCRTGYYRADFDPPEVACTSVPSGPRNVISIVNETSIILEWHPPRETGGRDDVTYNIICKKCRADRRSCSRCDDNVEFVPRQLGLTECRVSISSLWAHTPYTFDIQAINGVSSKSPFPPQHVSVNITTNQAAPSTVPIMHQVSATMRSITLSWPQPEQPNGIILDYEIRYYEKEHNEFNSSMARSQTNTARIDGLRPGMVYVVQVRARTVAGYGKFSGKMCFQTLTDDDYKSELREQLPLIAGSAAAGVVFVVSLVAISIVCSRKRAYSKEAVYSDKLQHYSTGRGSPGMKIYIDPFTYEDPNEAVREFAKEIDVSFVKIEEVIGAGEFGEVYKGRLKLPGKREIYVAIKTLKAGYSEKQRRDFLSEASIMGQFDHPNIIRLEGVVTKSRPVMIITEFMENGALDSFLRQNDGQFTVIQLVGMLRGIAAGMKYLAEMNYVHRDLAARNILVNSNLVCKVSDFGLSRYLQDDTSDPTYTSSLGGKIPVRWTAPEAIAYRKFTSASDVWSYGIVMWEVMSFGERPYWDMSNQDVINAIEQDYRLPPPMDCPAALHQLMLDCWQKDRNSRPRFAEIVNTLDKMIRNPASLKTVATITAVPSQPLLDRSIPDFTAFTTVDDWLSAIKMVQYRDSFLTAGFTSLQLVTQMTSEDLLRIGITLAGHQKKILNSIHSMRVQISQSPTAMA

| Sequence | SH2 binding enrichment (c-Src SH2) | SH2 binding enrichment (SHP2-C SH2) | SH2 binding enrichment (Grb2 SH2) | phosphorylation enrichment (Fyn) | phosphorylation enrichment (FGFR3) | phosphorylation enrichment (EPHB1) | phosphorylation enrichment (Fer (mouse)) | phosphorylation enrichment (FGFR1) | phosphorylation enrichment (EPHB2) | phosphorylation enrichment (Jak2) | phosphorylation enrichment (Fes) | phosphorylation enrichment (AncSZ) | phosphorylation enrichment (c-Src) | phosphorylation enrichment (MERTK) | phosphorylation enrichment (c-Abl (mouse)) | phosphorylation enrichment (Hck) |
| --- | --- | --- | --- | --- | --- | --- | --- | --- | --- | --- | --- | --- | --- | --- | --- | --- |
| PSTFRYERGSR [INPPL1_Y663_P659S_YF] | 0.47 | 0.879 | 0.811 | 0.408 | 0.429 | 0.368 | 0.352 | 0.411 | 0.47 | 0.459 | 0.484 | 0.51 | 0.491 | 0.366 | 0.628 | 0.345 |
| ETKGDYEKILV [ANXA1_Y335] | 1.08 | 0.54 | 0.815 | 0.506 | 0.682 | 0.713 | 1.04 | 0.548 | 0.625 | 1.01 | 1.17 | 1.16 | 0.523 | 0.454 | 0.82 | 0.651 |
| QRRLVYYEGGA [RYR1_Y245] | 1.06 | 0.803 | 1.17 | 0.369 | 0.602 | 0.402 | 0.536 | 0.497 | 0.606 | 0.682 | 1.11 | 0.788 | 0.583 | 1.15 | 0.728 | 0.421 |
| CTTIRYNFMCN [TP53_Y234_H233R_YF] | 1.65 | 1.82 | 1.87 | 0.521 | 0.684 | 0.552 | 0.501 | 0.434 | 0.613 | 0.833 | 0.983 | 0.948 | 0.372 | 0.407 | 0.618 | 0.435 |
| QEIATYRPLLE [KRT14_Y415_R417P] | 0.422 | 0.64 | 0.647 | 0.961 | 0.834 | 0.791 | 0.643 | 0.78 | 0.65 | 1.04 | 1.24 | 1.02 | 0.705 | 0.504 | 0.922 | 0.674 |
| CTTIHYSYMCN [TP53_Y234_N235S] | 5.17 | 6.33 | 1.58 | 0.465 | 0.724 | 0.524 | 1.01 | 0.667 | 0.628 | 0.663 | 0.916 | 0.897 | 0.526 | 0.874 | 0.627 | 0.53 |
| RHFTTYDTNGR [CLCA1_Y665_Y661H] | 0.494 | 0.642 | 0.716 | 1.01 | 0.755 | 0.609 | 0.594 | 0.808 | 0.97 | 0.844 | 0.938 | 0.93 | 0.876 | 0.707 | 0.618 | 0.835 |
| SISYDYCRVPM [BST2_Y8_T4I] | 0.831 | 0.705 | 1.01 | 0.965 | 5.46 | 11 | 3.87 | 7.84 | 9.95 | 3.05 | 1.17 | 3.91 | 1.17 | 2.98 | 1.03 | 2.62 |
| VVLEDYLDIKN [CLCNKB_Y138] | 0.497 | 0.786 | 0.747 | 0.534 | 0.608 | 0.499 | 0.391 | 0.668 | 0.671 | 1.07 | 1.2 | 1.02 | 0.421 | 0.464 | 0.576 | 0.434 |

Further lines, with some results ahead:

| SH2 binding enrichment (c-Src SH2) | SH2 binding enrichment (SHP2-C SH2) | SH2 binding enrichment (Grb2 SH2) | Sequence | phosphorylation enrichment (Fyn) | phosphorylation enrichment (FGFR3) | phosphorylation enrichment (EPHB1) | phosphorylation enrichment (Fer (mouse)) | phosphorylation enrichment (FGFR1) | phosphorylation enrichment (EPHB2) | phosphorylation enrichment (Jak2) | phosphorylation enrichment (Fes) | phosphorylation enrichment (AncSZ) | phosphorylation enrichment (c-Src) | phosphorylation enrichment (MERTK) | phosphorylation enrichment (c-Abl (mouse)) | phosphorylation enrichment (Hck) |
| --- | --- | --- | --- | --- | --- | --- | --- | --- | --- | --- | --- | --- | --- | --- | --- | --- |
| 0.658 | 0.847 | 1.01 | PFFASYPPSPD [GDAP2_Y491_T489A_YF] | 0.784 | 0.839 | 0.99 | 0.435 | 0.747 | 0.865 | 1.02 | 1.23 | 1.03 | 0.488 | 0.769 | 0.859 | 1.11 |
| 0.445 | 0.982 | 0.664 | QMRLRYLAAEE [CEP120_Y884] | 0.845 | 0.874 | 0.741 | 0.563 | 0.931 | 0.643 | 1.3 | 1.41 | 1.11 | 0.647 | 0.423 | 0.916 | 0.776 |
| 0.509 | 1.11 | 0.673 | REENGYNTYAS [FGF10_Y161_I156R] | 1.21 | 1.03 | 0.856 | 0.559 | 0.761 | 0.962 | 1.27 | 1.73 | 1.22 | 0.9 | 0.568 | 1.25 | 1.3 |
| 0.56 | 0.596 | 0.866 | ATPKGYETDAS [OTC_Y223_P225T] | 0.44 | 0.616 | 0.502 | 0.416 | 0.54 | 0.543 | 0.667 | 0.743 | 0.735 | 0.524 | 0.421 | 0.622 | 0.438 |
| 0.556 | 0.795 | 0.858 | ESLSSYRESAK [APOC2_Y47_W48R] | 0.342 | 0.456 | 0.252 | 0.314 | 0.382 | 0.317 | 0.487 | 0.529 | 0.63 | 0.303 | 0.391 | 0.495 | 0.305 |
| 0.462 | 0.729 | 0.689 | SPFAVYRFFTF [RPGRIP1_Y826_YF] | 0.68 | 0.798 | 0.501 | 0.496 | 0.637 | 0.519 | 1.08 | 1.33 | 1.22 | 0.91 | 0.45 | 0.961 | 0.867 |
| 0.608 | 0.699 | 1.26 | QADVIYVNTQL [MERTK_Y872] | 2.13 | 1.4 | 2.52 | 8.63 | 2.29 | 0.962 | 1.18 | 1.43 | 1.61 | 1.27 | 0.925 | 1 | 2.19 |
